± gives the uncertainty stated by the source.
Assay: amyloid nucleation score (Sup35N fusion, yeast selection) (log enrichment); library NNK1; higher = more nucleation; inactive = no reads after selection
In short: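 Psi-negative yeast expressed Sup35N fused to peptides of 20 random codons. They were induced 24 hours with 100 μM copper sulfate, grown 7 days at 30°C without adenine and uracil, and their plasmid inserts from input and output were Illumina-sequenced. The nucleation score is the DiMSum log enrichment of output over input reads, centred on the mode score of non-aggregating sequences. Sequences with under 100 input reads were excluded.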

Substance	amyloid nucleation score
CFVFLFFVPLWSRNRGEYMY	-0.937 ± 0.68
KVFYVLLHGSILSNRGMWQT	-0.725 ± 1.2
RCTGLRLRVLGAILIFIHYV	inactive
SFRCMEYSWGDWVINPPYLS	0.234 ± 0.62
RHKYMWM	1.46 ± 0.81
RRGVV	0.659 ± 0.93
ELSVNMSRDLSVTGLVQGRR	0.794 ± 0.36
TSSVGMWGQWYSRWNSRKCN	-0.573 ± 1.7
FSYKIMTSGTCTTWRNAFFS	-0.341 ± 0.33
PWKWF	-0.224 ± 0.43
NWHVGIIGWRCMGHTQKYVN	0.038 ± 0.22
LWRRWNCFT	inactive
KCIDMVFKY	0.143 ± 0.39
PVLSTYFHAKLQNTWMPGNR	-0.941 ± 0.77
VWTGCVHCRRWDSGSLLNSW	-0.036 ± 0.91
VVRTH	inactive
VAQLRIKVCKDPGTWLQVHH	1.48 ± 0.74
NRFTHHSIR	1.19 ± 0.84
CVSPSVTNFAELVSIVISPS	0.652 ± 0.66
LLGYLAMCS	1.01 ± 0.23
IRGNSKGMGQREFISPFPAR	-1 ± 0.35
YLVVPERLVANRMVS	-1.68 ± 2.4
TFWTLVQQATVKHMLYGTFL	-0.663 ± 1.9
WVCFIFIIFETVS	-0.207 ± 0.47
RRGVYSKVFAENHVLCMLSL	4.01 ± 0.067

Substance	amyloid nucleation score
NIHSEAPISPSMPGLREVTA	0.219 ± 0.32
EGTLSMALTL	0.849 ± 0.49
STLLYGLLAYWTYGFAWLFF	inactive
QLLSRLGIS	-0.641 ± 1.4
MTWIENKPLHNVRCRGIIAV	-0.12 ± 0.43
SKETAFGLSL	-0.368 ± 0.54
FHTNMTVSYQTKLVLDRYWN	3.42 ± 0.14
MFYSFNDVGWFAFRFSEIGV	-0.539 ± 0.41
YQDVIPNPVHRYTV	0.371 ± 0.31
AIDRRLYMGYSSWNEQDCEV	inactive
LLRGTIFVNDRVTID	0.973 ± 0.59
VWGYVMRS	0.299 ± 0.95
YQLTQLGLLS	0.025 ± 0.49
GLMLDLFVSSVYSIT	0.655 ± 0.42
KSAASILCTMNVSYRSNFLE	1.08 ± 0.37
RVSLSCIMKIYNFDKRVWLG	0.521 ± 0.97
VFLWDSHV	-0.505 ± 0.39
VQYNLTCNYY	4.01 ± 0.14
RHRDLGWRVIRWRAFMTSLW	-1.31 ± 2.1
LSTAWFGQNAHRCLGLVTLA	-0.005 ± 0.59
MHSPRGLE	1.07 ± 0.79
LRYFDLVATNHDNMIYDQYL	-0.177 ± 0.68
IKYFVLAWTSDPLTYVTVTS	0.953 ± 0.46
FFYLIISGMVMLSNPLSRVS	inactive
HSRYWSNIHSRWLTGRVRWG	-0.28 ± 0.51

Substance	amyloid nucleation score
ITMFNLYQCSL	5.78 ± 0.065
GAPEVPIDYGLEASRNCSKG	-0.61 ± 1.4
RRRRSDKDVYPFQSFMFNVV	0.476 ± 0.3
WSMMCKWMNVERFIYMLKSC	0.394 ± 1.1
CLFLLNVGLSLLIGLPRYMW	0.552 ± 0.91
HLKRRLKFDSGTSYQLVQKV	0.177 ± 1
DVDGEVRVLDFV	-0.24 ± 0.45
SSYAVSTSSPCLSATSARLK	0.893 ± 0.98
LGFAW	0.003 ± 0.45
SDDHVTVYNRDARRSRSCCL	inactive
FLSSCSMFMGRPWFSCYRVR	-1.02 ± 2.4
FVEVVRTLEQI	-0.485 ± 1
EIPLRAGWPPWCGSDICL	0.639 ± 0.55
LRCCRVN	-0.474 ± 0.42
IGDGSFYGLRQRQEARGKRA	-0.437 ± 0.73
PAMLPLTAMFLLHGRYVLTP	-0.384 ± 0.8
WRVNVEVKYFAEKTVQECWV	0.817 ± 0.23
RATQLF	1.81 ± 0.67
DARSNSVLYQRCSTSRGRSG	-0.615 ± 0.84
YVMSS	-0.369 ± 0.41
CLSYIVVALVRCTDIYYP	0.763 ± 0.42
VDCPIECTAAGRSHDSGV	1.42 ± 0.63
VPRYGTLEGANESDLFGW	0.282 ± 0.78
FRRVVNVSCTLTHSWIILLM	0.042 ± 1.1
TLPDKRILLSANIMPALVCN	0.837 ± 0.31

Substance	amyloid nucleation score
ESSMLAMVGIQSTWCNVSYG	1.67 ± 0.2
LFYLFPELMWDMQLCKVDGW	1.4 ± 0.44
DIRVIVRIYQSIINL	3.15 ± 0.09
HVFVLLPSKFADLLKKPVLL	-0.894 ± 1.7
QNIGGFMARFIIFILLYDHW	0.714 ± 0.84
VGEQPYFGVFTTRYVMARYA	0.487 ± 0.71
WHLWIVTTVTHMGSNNFLG	inactive
TSLRFLSVRS	0.011 ± 0.49
RCYFAWPEWLGYGCVVMERG	-0.435 ± 0.52
FWNINSSFFGLTNDTLVPNF	0.79 ± 0.22
FNYYITFHCTCELECRGYCT	7.841 ± 0.05
VPCNYKGSLSGRRYLSAKQS	0.011 ± 0.34
YFRRCFDRCVMSRLRPI	-0.793 ± 0.61
FKTYYLATLDTNS	-1.73 ± 2.4
GSDWTRMMNVLAGGGGVGSE	-0.484 ± 0.58
YRFSGEGALLASKWLINNCT	-0.224 ± 0.4
YMEKWAWRVVNESCASVVPP	-0.272 ± 0.89
IHWFVFYFLKKFCYYRSYAR	0.389 ± 0.4
RRSWVFFVDWFIFVCLCVNG	inactive
IGLVCCCSSFEFMRWY	2.49 ± 0.47
RTSPPFNTVYYTGEYEIIEI	-0.353 ± 0.54
LRYFGL	inactive
SHPTNFSCIVVSARQGVKKI	-0.148 ± 0.79
RLVKSEDSNKNGLDLCRYEL	0.753 ± 0.56
WPWHEHEQKWDKLCMLSWKR	inactive

Substance	amyloid nucleation score
PSLYACGQKPRSEALDARWL	inactive
GFGSELRYYYMSRGMYRIRP	0.089 ± 0.88
RCYKSLVGMNTHKSAAVVER	0.011 ± 0.27
PDSFCFTMHLRKDEMMTSCK	-0.053 ± 1
IRVTAEICYLLKHTVMGRMR	0.523 ± 0.34
GTFISLLLS	-0.077 ± 0.26
LDHYDVSGNRMVL	-0.487 ± 0.27
YEGYGPCWRKLYS	0.15 ± 0.36
GVGGLWVEDSWRQRLDSEWA	-0.014 ± 0.48
YIWRNKKSAIRCDSKTVRRN	-0.286 ± 0.35
EPIYCFCDCNGSRWALYVSV	0.421 ± 0.54
LSMSTFVKVCDVNAYPKGTA	0.358 ± 1.1
RVSSHGLILHFDKDNSMIAV	0.936 ± 0.61
SWRVCVMFDTL	-0.987 ± 1.1
NCSLILTTKRNRWYLQRLRF	0.467 ± 0.33
STRYRPLNWYLTKPPVRFKM	-0.037 ± 0.56
VHFEGFWAFTLVDLT	0.232 ± 0.48
LLVPHYFLEL	0.222 ± 0.43
GESKHKQSNECTQCC	1.11 ± 0.37
SGMVLNNQSS	-0.763 ± 0.79
AGIKIGKEKGCHNYRFWWTV	0.124 ± 0.5
MSYIQRMGVYLTITGLRGMK	-0.527 ± 1
NTLYVGWCMGFV	-0.354 ± 0.3
HCTSQ	1.71 ± 0.13
TGLPFYEEIMRTPHM	-0.766 ± 0.5

Substance	amyloid nucleation score
NRQKFSDVSYCTMTMFRVAH	-0.61 ± 1.7
DNKFYHKVTDRRFLIPIFQI	-0.331 ± 0.37
FKVPVYGWLWETTVVSADTS	-0.131 ± 0.37
LSALFLVPHYLDMVNLHSWR	-0.254 ± 0.44
GFHSQG	-0.172 ± 0.41
TVSDHPSFFCVYCADSSVGM	7.439 ± 0.073
MNFDCFPNSL	1.22 ± 0.35
CSGNI	-1.32 ± 1.7
GYSLYRM	6.746 ± 0.044
IIGSIGYVKVSCDQAVRFQL	5.01 ± 0.076
DSQVL	1.25 ± 0.56
DCPTYWFVAKFFANWVR	inactive
IYLSNAYSTTYSLKFSFM	6.14 ± 0.071
MCPTLVLSA	inactive
RQSQRWYFLLCGYYKAFFRR	1.63 ± 0.73
FLFRFQKCLFNCFVLGLVSR	-0.206 ± 0.53
QYSRLESLLM	0.483 ± 0.39
RCKFESVKRVS	1.42 ± 0.54
AIQYILEQLEQSRRWGISVH	inactive
RSEYAPRTNYK	-0.237 ± 0.48
NSFKCFNDRNEVALMITHRE	-0.526 ± 0.77
VVISIYGMYRSFTPQLWFKA	-0.603 ± 0.68
GLAGTLDPLTASDLLSRIGV	0.182 ± 0.62
AGRSNF	-0.062 ± 1.2
FFWCRSRLTLAF	0.024 ± 0.35

Substance	amyloid nucleation score
SWPMTIQYGDSIWNWKMSVM	0.388 ± 0.58
KACWTFNFCKSMVVKEHDPI	2.56 ± 0.19
FVTANMTKLFTLWNWRLPGK	0.583 ± 0.29
SVHSLMRDRISVPPRIVKNP	-0.008 ± 0.61
VKGVVYAGH	-1.44 ± 1.8
ARWGFTWVKA	0.372 ± 1.4
RLNNLWKFDEVLLGSSNRTR	-1.24 ± 0.44
LYLFDPTNQKRFEVWKWK	0.063 ± 0.49
QGPVGVSYILHDFIIML	5.94 ± 0.093
SIYRHDA	-0.053 ± 1.1
PPHIRKAGMRTFMGGLGLRG	0.619 ± 0.67
TCKTHHRGTPGATVFPKDTA	0.17 ± 0.45
YKGNKCCVKMMACWGTGCLP	1.98 ± 0.37
GFTMSTEGVS	0.781 ± 0.55
SDRPMRFNFSNNAYDSHLYL	0.511 ± 0.67
NFFQWPSVETWTASIN	-0.144 ± 0.41
HRCGLPASFIHHFVCDRAVG	-0.686 ± 1.4
CWVYFSNSSVILRR	0.074 ± 0.84
SFYLFCPNCGRWTVFGEYS	-1 ± 0.31
MRFKFMALGCEVLILGGFGS	3.72 ± 0.16
LNTGCDANQILAVCSRGVGV	0.793 ± 0.43
HYDSMTAL	0.491 ± 0.62
RSLFMAQVGHMWGRNVIRGI	-0.29 ± 1.7
